Source: patent US20190256588A1 (BEIJING HANMI PHARM, published 2019)
Residue numbers refer to the chain shown, from its start.

B1: monoclonal antibody secreted by Clone No. 88 (antibody, V domains shown)
VH: DVQVQESGPGLVKPSQSLSLTCTVTGNSITSYYAWNWIRQFPGNKLEWMGYITYSGTTSYNPSLKSRISITRDTSKNQFFLQLNSVTTEDTATYYCAREEYDDIYAVDYWGQGTSVTVSS
VL: IIVMTQTPLSLPVSLGDQASISCRSSQSLVHSNGNTYLHWYLQKPGQSPKLLIYKVYNRFSGVPDRFSGSGSGTDFTLKISRVEAEDLGVYFCSQSTHFPTFGGGTKLEIK
notes: Murine hybridoma antibody tested as culture supernatant; also called murine anti-human IL-17A monoclonal antibody
B2: anti-human IL-17A humanized monoclonal antibody AS15799 (antibody, human IgG1, kappa, V domains shown)
VH: QVQVQESGPGLVKPSETLSLTCTVSGNSITSYYAWNWIRQPPGKGLEWMGYITYSGTTSYNPSLKSRVTISRDTSKNQFSLKLSSVTAADTAVYYCAREEYDDIYAVDYWGQGTLVTVSS
VL: IIVMTQSPLSLPVTLGQPASISCRSSQSLVHSNGNTYLHWYQQRPGQSPRRLIYKVYNRFSGVPDRFSGSGSGTDFTLKISRVEAEDVGVYYCSQSTHFPTFGQGTRLEIKR
B3: anti-human IL-17A humanized monoclonal antibody AS15810 (antibody, human IgG1, kappa, V domains shown)
VH: B2 VH with R72V
VL: B2 VL with I1D, I2V, R51L
B4: anti-human IL-17A humanized monoclonal antibody AS15803 (antibody, human IgG1, kappa, V domains shown)
VH: B2 VH with V68I, R72V
VL: B2 VL with R51L, Y92F
B5: anti-human IL-17A humanized monoclonal antibody AS15802 (antibody, human IgG1, kappa, V domains shown)
VH: B2 VH with V4L
VL: B2 VL with R51L, Y92F
B6: anti-human IL-17A humanized monoclonal antibody AS15820 (antibody, human IgG1, kappa, V domains shown)
VH: B2 VH with V4L, R72V
VL: B2 VL with I1D, R51L, Y92F
B7: anti-human IL-17A humanized monoclonal antibody AS15815 (antibody, human IgG1, kappa, V domains shown)
VH: B2 VH with V68I
VL: B2 VL with I1D, I2V, Y41F, R51L
B8: anti-human IL-17A humanized monoclonal antibody AS15805 (antibody, human IgG1, kappa, V domains shown)
VH: B2 VH with V68I
VL: B2 VL with I1D

What follows are binders tested against T1, recombinant human IL-17A (human, UniProt Q16552 24-155) (assay: ELISA, recombinant human IL-17A coated at 1 µg/mL, HRP anti-mouse IgG, OD450nm).
T1 construct: also called IL-17A antigen
T1 sequence (Q16552 24-155 limits assumed): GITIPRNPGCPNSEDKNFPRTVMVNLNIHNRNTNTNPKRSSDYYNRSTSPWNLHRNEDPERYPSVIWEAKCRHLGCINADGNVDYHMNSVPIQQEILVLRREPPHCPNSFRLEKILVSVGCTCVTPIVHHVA
Protocol: The plate was washed five times with PBST. […] The plate was washed five times with PBST. […] The plate was washed five times with PBST. 100 μL/well of colorimetric substrate TMB was added and incubated at room temperature for 10 minutes. Color development was terminated by adding 100 μL/well of 1 M H₂SO₄. The absorbance at 450 nm was read on a microplate reader.

| EC50 | Binder |
| --- | --- |
| 0.165 nM | B1 |

These binders were tested against T1, recombinant human IL-17A (assay: ELISA, recombinant human IL-17A coated at 1 µg/mL, HRP anti-human IgG, OD450nm).
Protocol: The antigen binding activity of humanized anti-human IL-17A monoclonal antibody was determined by ELISA. Recombinant human IL-17A (purchased from Sino Biological Inc.) was coated on a 96-well high-absorbing ELISA plate with a carbonate buffer solution with pH 9.6, the coating concentration was 1 μg/mL, the coating amount was 100 μL per well, and the coating was carried at 4° C. out overnight. The plate was washed five times with PBST and blocked with 300 μL/well of PBST containing 1% BSA and incubated at 25° C. for 1 hour. The plate was washed five times with PBST. […] The plate was washed five times with PBST. Then, horseradish peroxidase-labeled anti-human IgG antibody (Chemicon, Catalog Number AP309P) 1:2000 diluted in PBST containing 1% BSA was added, 100 μL was added to each well, incubated at 25° C. for 1 hour. The plate was washed five times with PBST. 100 μL/well of colorimetric substrate TMB was added and incubated at room temperature for 10 minutes. Color development was terminated by adding 100 μL/well of 1 M H2SO₄. The absorbance at 450 nm was read on a microplate reader.

| EC50 | Binder |
| --- | --- |
| 0.091 nM | B2 |
| 0.083 nM | B3 |
| 0.087 nM | B4 |
| 0.088 nM | B5 |
| 0.089 nM | B6 |
| 0.077 nM | B7 |
| 0.082 nM | B8 |
